Target: the molecule itself
Assay: SEC; Superdex 200 10/300 GL; recombinant LITAF constructs; wild type LITAF kept in detergent

B1: wild type LITAF (full length, recombinant) (natural protein, human, UniProt Q99732 1-161, looked up)
chain: MSVPGPYQAATGPSSAPSAPPSYEETVAVNSYYPTPPAPMPGPTTGLVTGPDGKGMNPPSYYTQPAPIPNNNPITVQTVYVQHPITFLDRPIQMCCPSCNKMIVSQLSYNAGALTWLSCGSLCLLGCIAGCCFIPFCVDALQDVDHYCPNCRALLGTYKRL
notes: Lipopolysaccharide-induced tumour necrosis factor-alpha factor (LITAF, SIMPLE), human, full length wild type; Kept soluble with detergent (1% DDM or 1% FC12 at lysis, 0.04% DDM or 0.125% FC12 afterwards); also called LITAF WT; full length wild type LITAF protein; source: C43(DE3) BL21 E. coli, purified in detergent (Ni-NTA, ULP1 cleavage, SEC; DDM or FC12); not shown: His6, N-terminal, cleaved; …
binding result: binds

From PMC5142333, “The topology, structure and PE interaction of LITAF underpin a Charcot-Marie-Tooth disease type 1C” (BMC Biology, 2016)
